T1: human CD30 (commercial, conjugated to digoxigenin) (human, UniProt P28908 19-379, limits assumed, conjugated to digoxigenin (DIG))
T1 sequence (looked up): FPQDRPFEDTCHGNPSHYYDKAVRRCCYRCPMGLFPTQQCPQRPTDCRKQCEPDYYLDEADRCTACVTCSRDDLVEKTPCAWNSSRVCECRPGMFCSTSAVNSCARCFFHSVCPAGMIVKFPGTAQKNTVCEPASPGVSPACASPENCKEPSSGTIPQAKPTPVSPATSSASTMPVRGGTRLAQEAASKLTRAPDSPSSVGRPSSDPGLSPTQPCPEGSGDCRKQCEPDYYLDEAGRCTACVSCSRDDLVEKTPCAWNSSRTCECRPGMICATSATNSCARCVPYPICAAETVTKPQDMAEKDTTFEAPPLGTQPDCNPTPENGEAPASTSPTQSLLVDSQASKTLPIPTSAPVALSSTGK


target: T1, human CD30 (commercial, conjugated to …); assay: AlphaScreen competition

| Binder | Fold IC50 vs H3/L3 [fold] |
| --- | --- |
| AC10 H3/L3.9 (antibody, IgG1, name in Kabat numbering, V domains shown) VH: QIQLVQSGPEVKKPGASVKVSCKASGYTFTDYYITWVRQAPGQGLEWMGWIYPGSGNTKYNEKFQGRFVFSVDTSASTAYLQISSLKAEDTAVYFCANYGNYWFAYWGQGTLVTVSS VL: DIVLTQSPDSLAVSLGERATINCKASQSIDFDGDSYMNWYQQKPGQPPKVLIYAASNLESGIPARFSGSGSGTDFTLTINSLEAEDAATYYCQQSNEDPWTFGGGTKVEIK | 0.58 |
| AC10 H3/L3.18 (antibody, IgG1, name in Kabat numbering, V domains shown) VH: QIQLVQSGPEVKKPGASVKVSCKASGYTFTDYYITWVRQAPGQGLEWMGWIYPGSGNTKYNEKFQGRFVFSVDTSASTAYLQISSLKAEDTAVYFCANYGNYWFAYWGQGTLVTVSS VL: DIVLTQSPDSLAVSLGERATINCKASQSVDFDGNSYMNWYQQKPGQPPKVLIYAASNLESGIPARFSGSGSGTDFTLTINSLEAEDAATYYCQQSNEDPWTFGGGTKVEIK | 1.45 |
| AC10 H3/L3.25 (antibody, IgG1, name in Kabat numbering, V domains shown) VH: QIQLVQSGPEVKKPGASVKVSCKASGYTFTDYYITWVRQAPGQGLEWMGWIYPGSGNTKYNEKFQGRFVFSVDTSASTAYLQISSLKAEDTAVYFCANYGNYWFAYWGQGTLVTVSS VL: DIVLTQSPDSLAVSLGERATINCKASQSVDFDGDSYLNWYQQKPGQPPKVLIYAASNLESGIPARFSGSGSGTDFTLTINSLEAEDAATYYCQQSNEDPWTFGGGTKVEIK | 1.36 |
| AC10 H3/L3.17 (antibody, IgG1, name in Kabat numbering, V domains shown) VH: QIQLVQSGPEVKKPGASVKVSCKASGYTFTDYYITWVRQAPGQGLEWMGWIYPGSGNTKYNEKFQGRFVFSVDTSASTAYLQISSLKAEDTAVYFCANYGNYWFAYWGQGTLVTVSS VL: DIVLTQSPDSLAVSLGERATINCKASQSVDFDGKSYMNWYQQKPGQPPKVLIYAASNLESGIPARFSGSGSGTDFTLTINSLEAEDAATYYCQQSNEDPWTFGGGTKVEIK | 1.21 |
| AC10 H3/L3.28 (antibody, IgG1, name in Kabat numbering, V domains shown) VH: QIQLVQSGPEVKKPGASVKVSCKASGYTFTDYYITWVRQAPGQGLEWMGWIYPGSGNTKYNEKFQGRFVFSVDTSASTAYLQISSLKAEDTAVYFCANYGNYWFAYWGQGTLVTVSS VL: DIVLTQSPDSLAVSLGERATINCKASQSVDFDGDSYMDWYQQKPGQPPKVLIYAASNLESGIPARFSGSGSGTDFTLTINSLEAEDAATYYCQQSNEDPWTFGGGTKVEIK | 0.41 |
| AC10 H3/L3.15 (antibody, IgG1, name in Kabat numbering, V domains shown) VH: QIQLVQSGPEVKKPGASVKVSCKASGYTFTDYYITWVRQAPGQGLEWMGWIYPGSGNTKYNEKFQGRFVFSVDTSASTAYLQISSLKAEDTAVYFCANYGNYWFAYWGQGTLVTVSS VL: DIVLTQSPDSLAVSLGERATINCKASQSVDYDGDSYMNWYQQKPGQPPKVLIYAASNLESGIPARFSGSGSGTDFTLTINSLEAEDAATYYCQQSNEDPWTFGGGTKVEIK | 0.63 |
| AC10 H3/L3.19 (antibody, IgG1, name in Kabat numbering, V domains shown) VH: QIQLVQSGPEVKKPGASVKVSCKASGYTFTDYYITWVRQAPGQGLEWMGWIYPGSGNTKYNEKFQGRFVFSVDTSASTAYLQISSLKAEDTAVYFCANYGNYWFAYWGQGTLVTVSS VL: DIVLTQSPDSLAVSLGERATINCKASQSVDFDGSSYMNWYQQKPGQPPKVLIYAASNLESGIPARFSGSGSGTDFTLTINSLEAEDAATYYCQQSNEDPWTFGGGTKVEIK | 1.13 |
| AC10 H3/L3.32 (antibody, IgG1, name in Kabat numbering, V domains shown) VH: QIQLVQSGPEVKKPGASVKVSCKASGYTFTDYYITWVRQAPGQGLEWMGWIYPGSGNTKYNEKFQGRFVFSVDTSASTAYLQISSLKAEDTAVYFCANYGNYWFAYWGQGTLVTVSS VL: DIVLTQSPDSLAVSLGERATINCKASQSVDFDGDSYMNWYQQKPGQPPKSLIYAASNLESGIPARFSGSGSGTDFTLTINSLEAEDAATYYCQQSNEDPWTFGGGTKVEIK | 0.32 |
| AC10 H3/L3.34 (antibody, IgG1, name in Kabat numbering, V domains shown) VH: QIQLVQSGPEVKKPGASVKVSCKASGYTFTDYYITWVRQAPGQGLEWMGWIYPGSGNTKYNEKFQGRFVFSVDTSASTAYLQISSLKAEDTAVYFCANYGNYWFAYWGQGTLVTVSS VL: DIVLTQSPDSLAVSLGERATINCKASQSVDFDGDSYMNWYQQKPGQPPKVLIYSASNLESGIPARFSGSGSGTDFTLTINSLEAEDAATYYCQQSNEDPWTFGGGTKVEIK | 0.47 |
| AC10 H3/L3.13 (antibody, IgG1, name in Kabat numbering, V domains shown) VH: QIQLVQSGPEVKKPGASVKVSCKASGYTFTDYYITWVRQAPGQGLEWMGWIYPGSGNTKYNEKFQGRFVFSVDTSASTAYLQISSLKAEDTAVYFCANYGNYWFAYWGQGTLVTVSS VL: DIVLTQSPDSLAVSLGERATINCKASQSVDDDGDSYMNWYQQKPGQPPKVLIYAASNLESGIPARFSGSGSGTDFTLTINSLEAEDAATYYCQQSNEDPWTFGGGTKVEIK | 0.32 |
| AC10 H3/L3.33 (antibody, IgG1, name in Kabat numbering, V domains shown) VH: QIQLVQSGPEVKKPGASVKVSCKASGYTFTDYYITWVRQAPGQGLEWMGWIYPGSGNTKYNEKFQGRFVFSVDTSASTAYLQISSLKAEDTAVYFCANYGNYWFAYWGQGTLVTVSS VL: DIVLTQSPDSLAVSLGERATINCKASQSVDFDGDSYMNWYQQKPGQPPKVLIYDASNLESGIPARFSGSGSGTDFTLTINSLEAEDAATYYCQQSNEDPWTFGGGTKVEIK | 0.26 |
| AC10 H3/L3.24 (antibody, IgG1, name in Kabat numbering, V domains shown) VH: QIQLVQSGPEVKKPGASVKVSCKASGYTFTDYYITWVRQAPGQGLEWMGWIYPGSGNTKYNEKFQGRFVFSVDTSASTAYLQISSLKAEDTAVYFCANYGNYWFAYWGQGTLVTVSS VL: DIVLTQSPDSLAVSLGERATINCKASQSVDFDGDSDMNWYQQKPGQPPKVLIYAASNLESGIPARFSGSGSGTDFTLTINSLEAEDAATYYCQQSNEDPWTFGGGTKVEIK | 0.46 |
| AC10 H3/L3.27 (antibody, IgG1, name in Kabat numbering, V domains shown) VH: QIQLVQSGPEVKKPGASVKVSCKASGYTFTDYYITWVRQAPGQGLEWMGWIYPGSGNTKYNEKFQGRFVFSVDTSASTAYLQISSLKAEDTAVYFCANYGNYWFAYWGQGTLVTVSS VL: DIVLTQSPDSLAVSLGERATINCKASQSVDFDGDSYMAWYQQKPGQPPKVLIYAASNLESGIPARFSGSGSGTDFTLTINSLEAEDAATYYCQQSNEDPWTFGGGTKVEIK | 0.38 |
| AC10 H3/L3.23 (antibody, IgG1, name in Kabat numbering, V domains shown) VH: QIQLVQSGPEVKKPGASVKVSCKASGYTFTDYYITWVRQAPGQGLEWMGWIYPGSGNTKYNEKFQGRFVFSVDTSASTAYLQISSLKAEDTAVYFCANYGNYWFAYWGQGTLVTVSS VL: DIVLTQSPDSLAVSLGERATINCKASQSVDFDGDNYMNWYQQKPGQPPKVLIYAASNLESGIPARFSGSGSGTDFTLTINSLEAEDAATYYCQQSNEDPWTFGGGTKVEIK | 0.71 |
| AC10 H3/L3.20 (antibody, IgG1, name in Kabat numbering, V domains shown) VH: QIQLVQSGPEVKKPGASVKVSCKASGYTFTDYYITWVRQAPGQGLEWMGWIYPGSGNTKYNEKFQGRFVFSVDTSASTAYLQISSLKAEDTAVYFCANYGNYWFAYWGQGTLVTVSS VL: DIVLTQSPDSLAVSLGERATINCKASQSVDFDGYSYMNWYQQKPGQPPKVLIYAASNLESGIPARFSGSGSGTDFTLTINSLEAEDAATYYCQQSNEDPWTFGGGTKVEIK | 0.78 |
| AC10 H3/L3.22 (antibody, IgG1, name in Kabat numbering, V domains shown) VH: QIQLVQSGPEVKKPGASVKVSCKASGYTFTDYYITWVRQAPGQGLEWMGWIYPGSGNTKYNEKFQGRFVFSVDTSASTAYLQISSLKAEDTAVYFCANYGNYWFAYWGQGTLVTVSS VL: DIVLTQSPDSLAVSLGERATINCKASQSVDFDGDTYMNWYQQKPGQPPKVLIYAASNLESGIPARFSGSGSGTDFTLTINSLEAEDAATYYCQQSNEDPWTFGGGTKVEIK | 0.46 |
| AC10 H3/L3.16 (antibody, IgG1, name in Kabat numbering, V domains shown) VH: QIQLVQSGPEVKKPGASVKVSCKASGYTFTDYYITWVRQAPGQGLEWMGWIYPGSGNTKYNEKFQGRFVFSVDTSASTAYLQISSLKAEDTAVYFCANYGNYWFAYWGQGTLVTVSS VL: DIVLTQSPDSLAVSLGERATINCKASQSVDFNGDSYMNWYQQKPGQPPKVLIYAASNLESGIPARFSGSGSGTDFTLTINSLEAEDAATYYCQQSNEDPWTFGGGTKVEIK | 1.61 |
| AC10 H3/L3.12 (antibody, IgG1, name in Kabat numbering, V domains shown) VH: QIQLVQSGPEVKKPGASVKVSCKASGYTFTDYYITWVRQAPGQGLEWMGWIYPGSGNTKYNEKFQGRFVFSVDTSASTAYLQISSLKAEDTAVYFCANYGNYWFAYWGQGTLVTVSS VL: DIVLTQSPDSLAVSLGERATINCKASQSVVFDGDSYMNWYQQKPGQPPKVLIYAASNLESGIPARFSGSGSGTDFTLTINSLEAEDAATYYCQQSNEDPWTFGGGTKVEIK | 1.15 |
| AC10 H3/L3.30 (antibody, IgG1, name in Kabat numbering, V domains shown) VH: QIQLVQSGPEVKKPGASVKVSCKASGYTFTDYYITWVRQAPGQGLEWMGWIYPGSGNTKYNEKFQGRFVFSVDTSASTAYLQISSLKAEDTAVYFCANYGNYWFAYWGQGTLVTVSS VL: DIVLTQSPDSLAVSLGERATINCKASQSVDFDGDSYMNWYQQKPGQPPKLLIYAASNLESGIPARFSGSGSGTDFTLTINSLEAEDAATYYCQQSNEDPWTFGGGTKVEIK | 0.39 |
| AC10 H3/L3.21 (antibody, IgG1, name in Kabat numbering, V domains shown) VH: QIQLVQSGPEVKKPGASVKVSCKASGYTFTDYYITWVRQAPGQGLEWMGWIYPGSGNTKYNEKFQGRFVFSVDTSASTAYLQISSLKAEDTAVYFCANYGNYWFAYWGQGTLVTVSS VL: DIVLTQSPDSLAVSLGERATINCKASQSVDFDGDDYMNWYQQKPGQPPKVLIYAASNLESGIPARFSGSGSGTDFTLTINSLEAEDAATYYCQQSNEDPWTFGGGTKVEIK | 0.81 |
